Measurements published in PMC8137920, “Self-association of MreC as a regulatory signal in bacterial cell wall elongation” (Nature Communications, 2021).

Key:
[1] = target: the molecule itself; experiment: negative-staining electron microscopy; purified protein concentrated in 25 mM CHES pH 9.0, 150 mM NaCl, 10 mM MgCl2; mica-carbon flotation, 2% sodium silico tungstate pH 7.4
[2] = target: the molecule itself; experiment: AUC; sedimentation velocity (SV-AUC), 0.8 mg/ml protein, 25 mM CHES pH 9.0, 150 mM NaCl, 10 mM MgCl2, 62,000 g, 20 °C, absorbance at 280 nm, c(s) analysis with Sedfit

B1: MreC from Pseudomonas aeruginosa lacking the TM region and the first 21 residues of its N-terminal helix, residues 36-330 (domain or fragment, Pseudomonas aeruginosa PAO1, UniProt Q9HVU1 36-330, looked up)
chain: LAEMPVRAWEGVRDQFSSRSELIAENERLKAESLLMQRRVQKLAALTEQNVRLRELLNSAALVDDKVLVSELIGVDPNPFTQRIMIDKGENDGVFVGQPVLDASGLMGQVVEVMPYTARVLLLTDTTHSIPVQVNRNGLRAIAVGTGNPERLELRYVADTADIKEGDLLVSSGLGQRFPAGYPVATVKEVIHDSGQPFAVVRAVPTAKMNRSRYVLLVFSDSRTPEQRANDAAEAQEEADKKAAAGAQAPQPAAQPAAAPSPATPAAQGAAQQPAAAPAPAPTQPAAPAANGGRR
notes: MreC, Pseudomonas aeruginosa PAO1, residues 36-330; also called MreCPa(36-330); MreCPa; not shown: GST, N-terminal, cleaved
binding result [1]: binds

B2: MreC from Pseudomonas aeruginosa, periplasmic form, residues 15-330 (domain or fragment, Pseudomonas aeruginosa PAO1, UniProt Q9HVU1 15-330, looked up)
chain: RFDYLEPVRSKLGMVLTPFYGLAEMPVRAWEGVRDQFSSRSELIAENERLKAESLLMQRRVQKLAALTEQNVRLRELLNSAALVDDKVLVSELIGVDPNPFTQRIMIDKGENDGVFVGQPVLDASGLMGQVVEVMPYTARVLLLTDTTHSIPVQVNRNGLRAIAVGTGNPERLELRYVADTADIKEGDLLVSSGLGQRFPAGYPVATVKEVIHDSGQPFAVVRAVPTAKMNRSRYVLLVFSDSRTPEQRANDAAEAQEEADKKAAAGAQAPQPAAQPAAAPSPATPAAQGAAQQPAAAPAPAPTQPAAPAANGGRR
notes: MreC, Pseudomonas aeruginosa PAO1, residues 15-330; lacks the first 14 amino acids (cytoplasmic residues and TM region); The results call it only 'MreCPa' (periplasmic form); also called MreCPa; MreCPa(15-330); not shown: GST, N-terminal, cleaved
binding result [2]: binds
